Test results: publication PMC7990499 (eLife, 2021)

Target: T1, fluorescently tagged eIF2Bβδγε tetramer (eIF2Bβδγε-F) (human, UniProt P49770 2-351; Q9UI10 1-523; Q9NR50 1-452; Q13144 1-721)
T1 construct: eIF2Bβ (eIF2B subunit beta), human; eIF2Bδ (eIF2B subunit delta), human; eIF2Bγ (eIF2B subunit gamma), human; eIF2Bε (eIF2B subunit epsilon), human; also called eIF2Bβγδε-F; tagged tetramers; source: E. coli, co-expression of pMS029 and pJT074, purified as previously described (Tsai et al., 2018); not shown: mNeonGreen with (GS)5 linker, C-terminal, kept; mScarlet-i with (GS)5 linker, C-terminal, …
Assay: FRET or BRET; in vitro equilibrium FRET (E592/E516), 50 nM eIF2Bβδγε-F with a titration of eIF2Bα2, 1 hr, room temperature, 20 mM HEPES-KOH pH 7.5, 100 mM KCl, 5 mM MgCl2, 1 mM TCEP, 0.5% DMSO
Conditions: both partners purified

T1 sequence (P49770 2-351, stated change not applied, chain 1 of 4): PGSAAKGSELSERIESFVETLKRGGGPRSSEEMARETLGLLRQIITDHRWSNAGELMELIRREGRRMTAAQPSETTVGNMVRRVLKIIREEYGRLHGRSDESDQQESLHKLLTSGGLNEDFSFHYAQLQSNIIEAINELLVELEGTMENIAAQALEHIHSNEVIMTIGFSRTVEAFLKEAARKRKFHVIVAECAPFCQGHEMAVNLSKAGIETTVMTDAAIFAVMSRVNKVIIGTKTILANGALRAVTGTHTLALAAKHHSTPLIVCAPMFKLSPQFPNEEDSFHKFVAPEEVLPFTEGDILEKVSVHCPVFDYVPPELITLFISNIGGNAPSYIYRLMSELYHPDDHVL
T1 sequence (Q9UI10 whole entry, stated change not applied, chain 2 of 4): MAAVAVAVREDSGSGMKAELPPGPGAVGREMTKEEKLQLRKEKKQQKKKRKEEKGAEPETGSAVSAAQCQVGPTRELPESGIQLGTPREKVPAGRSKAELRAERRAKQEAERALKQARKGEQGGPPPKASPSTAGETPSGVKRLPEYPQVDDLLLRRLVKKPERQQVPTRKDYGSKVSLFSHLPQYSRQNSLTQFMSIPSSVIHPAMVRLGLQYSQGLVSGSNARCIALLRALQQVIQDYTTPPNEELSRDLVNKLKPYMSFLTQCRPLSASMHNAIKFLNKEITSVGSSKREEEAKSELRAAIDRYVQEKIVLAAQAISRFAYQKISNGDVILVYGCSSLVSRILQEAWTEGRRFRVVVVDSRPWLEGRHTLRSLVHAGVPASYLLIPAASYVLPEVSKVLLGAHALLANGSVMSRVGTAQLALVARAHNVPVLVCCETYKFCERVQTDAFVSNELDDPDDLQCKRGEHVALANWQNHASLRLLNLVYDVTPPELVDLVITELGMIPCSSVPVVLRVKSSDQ
T1 sequence (Q9NR50 whole entry, stated change not applied, chain 3 of 4): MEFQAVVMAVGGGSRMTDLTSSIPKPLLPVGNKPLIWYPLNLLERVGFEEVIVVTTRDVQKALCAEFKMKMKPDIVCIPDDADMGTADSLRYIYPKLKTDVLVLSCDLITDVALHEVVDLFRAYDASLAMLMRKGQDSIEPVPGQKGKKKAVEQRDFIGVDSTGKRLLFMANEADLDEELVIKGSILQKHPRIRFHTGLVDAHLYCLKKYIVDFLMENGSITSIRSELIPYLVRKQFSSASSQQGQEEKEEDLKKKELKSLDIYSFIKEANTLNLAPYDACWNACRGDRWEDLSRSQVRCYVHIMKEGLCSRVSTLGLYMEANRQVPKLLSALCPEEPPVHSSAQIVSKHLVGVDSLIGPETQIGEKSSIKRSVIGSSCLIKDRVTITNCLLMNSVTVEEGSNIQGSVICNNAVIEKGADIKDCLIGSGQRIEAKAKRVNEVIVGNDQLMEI
T1 sequence (Q13144 whole entry, stated change not applied, chain 4 of 4): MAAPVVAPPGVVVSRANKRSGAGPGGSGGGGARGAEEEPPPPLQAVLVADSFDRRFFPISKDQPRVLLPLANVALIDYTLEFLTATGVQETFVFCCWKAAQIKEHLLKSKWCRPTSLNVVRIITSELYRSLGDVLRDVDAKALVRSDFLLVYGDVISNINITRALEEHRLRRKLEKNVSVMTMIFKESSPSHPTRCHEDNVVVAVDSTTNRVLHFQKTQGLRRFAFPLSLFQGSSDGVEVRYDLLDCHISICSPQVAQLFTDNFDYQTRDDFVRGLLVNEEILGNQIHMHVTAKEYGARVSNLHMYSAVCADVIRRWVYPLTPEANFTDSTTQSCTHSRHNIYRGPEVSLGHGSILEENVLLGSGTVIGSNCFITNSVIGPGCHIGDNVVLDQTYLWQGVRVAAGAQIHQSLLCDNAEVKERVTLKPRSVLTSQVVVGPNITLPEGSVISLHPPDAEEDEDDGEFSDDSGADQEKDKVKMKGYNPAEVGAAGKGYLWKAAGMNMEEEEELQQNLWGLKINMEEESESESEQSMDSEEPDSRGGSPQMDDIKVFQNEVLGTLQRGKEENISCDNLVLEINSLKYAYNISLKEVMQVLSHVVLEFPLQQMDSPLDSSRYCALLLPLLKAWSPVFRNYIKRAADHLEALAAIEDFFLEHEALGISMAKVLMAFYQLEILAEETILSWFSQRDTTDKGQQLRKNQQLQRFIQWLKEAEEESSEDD

EC50: 20 nM
B1: eIF2Bα homodimer (eIF2Bα2) (natural protein, human)
chain: MDDKELIEYFKSQMKEDPDMASAVAAIRTLLEFLKRDKGETIQGLRANLTSAIETLCGVDSSVAVSSGGELFLRFISLASLEYSDYSKCKKIMIERGELFLRRISLSRNKIADLCHTFIKDGATILTHAYSRVVLRVLEAAVAAKKRFSVYVTESQPDLSGKKMAKALCHLNVPVTVVLDAAVGYIMEKADLVIVGAEGVVENGGIINKIGTNQMAVCAKAQNKPFYVVAESFKFVRLFPLNQQDVPDKFKYKADTLKVAQTGQDLKEEHPWVDYTAPSLITLLFTDLGVLTPSAVSDELIKLYL
notes: eIF2Bα (eIF2B subunit alpha), human; also called eIFBα2; eIF2Bα homodimers; source: E. coli, expressed separately (pJT075 or pMS027), purified as previously described (Tsai et al., 2018)
